Assay results as given in US20250339466A1 (published 2025).

Assays:
[1] = target: T1, Bio-cyBCMA-His (biotinylated cynomolgus BCMA with His tag) (cynomolgus, UniProt A0A2K5UD97 1-53, Biotinylated (site not stated); C- or N-terminal His tag not carried in the letters); experiment: ELISA, periplasmic extract of scFv on biotinylated cynomolgus BCMA-His
T1 construct: not shown: biotin label

[2] = target: T2, human BCMA on BCMA overexpressing CHO cells (human, UniProt Q02223 1-184); experiment: flow cytometry, periplasmic extract of scFv on cells with human BCMA
T2 construct: also called hBCMA CHO; Hu BCMA (FACS)
T2 chain: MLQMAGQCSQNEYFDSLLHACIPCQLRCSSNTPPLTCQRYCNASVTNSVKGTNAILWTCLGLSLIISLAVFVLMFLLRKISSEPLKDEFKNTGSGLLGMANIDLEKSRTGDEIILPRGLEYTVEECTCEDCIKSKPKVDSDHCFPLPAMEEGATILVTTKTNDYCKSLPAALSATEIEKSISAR

[3] = target: Bio-huBCMA-His (biotinylated human BCMA with His tag) (human) (UniProt Q02223); experiment: ELISA, periplasmic extract of scFv on biotinylated human BCMA-His

T1 sequence (A0A2K5UD97 entry or part of it limits assumed, form in doubt): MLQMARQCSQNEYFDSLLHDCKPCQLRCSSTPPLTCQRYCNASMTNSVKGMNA

Binder | PE Elisa Bio-cyBCMA-His [1] | PE FACS % Binding Hu BCMA [2] [%] | PE ELISA Bio-huBCMA-His [3]
anti-BCMA scFv clone from phage display, periplasmic extract (Table 3, third row; VH printed there as SEQ ID NO: 10, VL as SEQ ID NO: 27) (scFv) EVQLVESGGDVVQPGRSLRLSCAASGFTFSSYAIHWVRQAPGKGLEWVAVTWHDGSNKYYAESVMGRFTISRDNSKNTLYLHMNSLRAEDTGVYYCARAKFGEPQYFQHWGQGTTVTVSSDIVMTQSPSFLSASVGDRVTITCRASQGISSYLAWYQQKPGKAPKLLIYAASTLQSGVPSRFSGSGSGTEFTLTISSLQPEDFATYYCQQLNSYPFTFGPGTKVDIK | 0.126 | 47.2 | 
anti-BCMA scFv clone from phage display, periplasmic extract (Table 3, first row; VH printed there as SEQ ID NO: 26, VL as SEQ ID NO: 23) (scFv) QITLRESGGDVVQPGRSLRLSCAASGFTFSSYAIHWVRQAPGKGLEWVAVTWHDGSNKYYAESVMGRFTISRDNSKNTLYLHMNSLRAEDTGVYYCARAKFGEPQYFQHWGQGTLVTVSSDIVMTQSPSFLSASVGDRVTITCRASQGISSYLAWYQQKPGKAPKLLIYAASTLQSGVPSRFSGSGSGTEFTLTISSLQPEDFATYYCQQLNSYPWTFGQGTKVDIK | 0.147 | 89 | 
anti-BCMA scFv clone from phage display, periplasmic extract (Table 3, second row; VH printed there as SEQ ID NO: 26, VL as SEQ ID NO: 25) (scFv) QITLRESGGDVVQPGRSLRLSCAASGFTFSSYAIHWVRQAPGKGLEWVAVTWHDGSNKYYAESVMGRFTISRDNSKNTLYLHMNSLRAEDTGVYYCARAKFGEPQYFQHWGQGTLVTVSSDIVMTQSPSFLSASVGDRVTITCRASQGINNYLAWYQQKPGIAPKLLIYAASTLQSGVPSRFGGSGSGTEFTLTISSLQPEDFATYYCQQLKSYPFTFGPGTKVEIK | 0.122 | 54.6 | 
anti-BCMA scFv clone from phage display, periplasmic extract (Table 3, first row; VH printed there as SEQ ID NO: 26, VL as SEQ ID NO: 23) (scFv, V domains shown, part only, linker not stated) VH: QITLRESGGDVVQPGRSLRLSCAASGFTFSSYAIHWVRQAPGKGLEWVAVTWHDGSNKYYAESVMGRFTISRDNSKNTLYLHMNSLRAEDTGVYYCARAKFGEPQYFQHWGQGTLVTVSS VL: DIVMTQSPSFLSASVGDRVTITCRASQGISSYLAWYQQKPGKAPKLLIYAASTLQSGVPSRFSGSGSGTEFTLTISSLQPEDFATYYCQQLNSYPWTFGQGTKVDIK |  |  | 1.1
anti-BCMA scFv clone from phage display, periplasmic extract (Table 3, third row; VH printed there as SEQ ID NO: 10, VL as SEQ ID NO: 27) (scFv, V domains shown, part only, linker not stated) VH: EVQLVESGGDVVQPGRSLRLSCAASGFTFSSYAIHWVRQAPGKGLEWVAVTWHDGSNKYYAESVMGRFTISRDNSKNTLYLHMNSLRAEDTGVYYCARAKFGEPQYFQHWGQGTTVTVSS VL: DIVMTQSPSFLSASVGDRVTITCRASQGISSYLAWYQQKPGKAPKLLIYAASTLQSGVPSRFSGSGSGTEFTLTISSLQPEDFATYYCQQLNSYPFTFGPGTKVDIK |  |  | 0.516
anti-BCMA scFv clone from phage display, periplasmic extract (Table 3, second row; VH printed there as SEQ ID NO: 26, VL as SEQ ID NO: 25) (scFv, V domains shown, part only, linker not stated) VH: QITLRESGGDVVQPGRSLRLSCAASGFTFSSYAIHWVRQAPGKGLEWVAVTWHDGSNKYYAESVMGRFTISRDNSKNTLYLHMNSLRAEDTGVYYCARAKFGEPQYFQHWGQGTLVTVSS VL: DIVMTQSPSFLSASVGDRVTITCRASQGINNYLAWYQQKPGIAPKLLIYAASTLQSGVPSRFGGSGSGTEFTLTISSLQPEDFATYYCQQLKSYPFTFGPGTKVEIK |  |  | 1.11
